From the Human Domainome abundance scans (Beltran et al. 2025)

B1: GA-binding protein alpha chain, residues 172 to 250; numbered along this chain, Q06546 (parent)
chain: GYRKEQERLGIPYDPIQWSTDQVLHWVVWVMKEFSMTDIDLTTLNISGRELCSLNQEDFFQRVPRGEILWSHLELLRKY
B2: Ankyrin repeat and SOCS box protein 14, residues 532 to 572; numbered along this chain, A6NK59 (parent)
chain: RSLKHLCRLKIRKCMGRLHLRCPVFMSFLPLPNRLKAYVLY

Variants of: B1
Experiment: abundance fitness (aPCA) (normalised: wild type 0, dead -1); higher = more abundant; growth selection in yeast, the domain comes from the species named
Conditions: Homo sapiens

Abundance fitness: each site, then its substitutions
K78: Y -0.208
Y79: A -0.021; C -0.061; D 0.06; E 0.01; F 0.062; G 0.031; H 0.002; I -0.09; K 0.146; L -0.032; M -0.299; N 0.107; P 0.009; Q 0.006; R -0.054; S 0.038; T -0.148; V -0.096; W -0.09

Variants of: B2
Experiment: as above
Conditions: Homo sapiens

Abundance fitness: each site, then its substitutions
R1: A -0.414; C -0.113; E -0.033; F 0.243; G -0.042; K -0.107; M 0.386; N 0.093; S -0.39; T -0.372; V -0.1; W 0.045
S2: A -0.37; C -0.572; D 0.299; E -0.057; I 0.335; K -0.053; L 0.136; M 0.48; P -0.521; R -0.153; T -0.196; V -0.339; W -0.097
L3: A -0.939; C -0.517; D -0.331; E -0.142; G -0.686; H -0.878; K -0.575; M -0.163; N -0.529; P -0.949; Q -0.655; R -0.759; T -0.668; V -0.547; W 0.011
K4: A 0.041; D -0.808; E -0.596; G -0.157; L 0.157; M -0.002; N -0.344; P -0.233; Q -0.425; R -0.155; S -0.135; T 0.031; V -0.174; W 0.051; Y 0.34
H5: A -0.137; C -0.043; D -0.293; E -0.018; G -0.37; L -0.184; M 0.057; N -0.105; P -0.6; Q -0.296; R -0.285; S 0.069; V -0.94
L6: A 0.122; C 0.204; D 0.192; E 0.166; G -0.297; H 0.054; K 0.027; P -0.493; Q 0.261; R 0.154; S 0.155; T -0.041; V -0.183; W 0.394; Y 0.083
C7: A 0.063; E -0.37; F 0.041; G -0.291; H -0.631; I 0.229; K -0.596; M 0.24; N -0.414; P -0.577; Q -0.529; R -0.871; S -0.357; T -0.217; V 0.304; W 0.099
R8: A 0.104; C 0.006; E -0.092; G -0.004; K 0.118; L 0.07; P 0.076; Q -0.048; S -0.132; T 0.005; V 0.057; W 0.4; Y 0.329
L9: A 0.003; C 0.119; D 0.13; E 0.308; G -0.084; H -0.089; I 0.08; K -0.234; M 0.076; P -0.866; Q 0.156; R -0.205; S 0.012; T 0.118; V -0.22; W -0.235
K10: A 0.352; C -0.193; D -0.319; E -0.208; G -0.066; H -0.559; L 0.445; M 0.439; Q -0.107; R -0.393; T 0.039; V 0.406; Y 0.168
I11: A -0.613; C -1.05; E -0.953; G -0.68; K -0.858; L -0.09
